Results from publication PMC10246534.

What follows are substances tested against imdevimab (human) (assay: SPR; Biacore T200; […]; HBS-EP, 25 °C; 1:1 binding model).
Chain of imdevimab (human) (heavy, as listed by the source, chain 1 of 2): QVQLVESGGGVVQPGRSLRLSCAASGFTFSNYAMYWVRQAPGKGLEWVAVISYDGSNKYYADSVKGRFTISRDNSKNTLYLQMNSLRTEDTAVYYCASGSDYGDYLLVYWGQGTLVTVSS
Chain of imdevimab (human) (light, as listed by the source, chain 2 of 2): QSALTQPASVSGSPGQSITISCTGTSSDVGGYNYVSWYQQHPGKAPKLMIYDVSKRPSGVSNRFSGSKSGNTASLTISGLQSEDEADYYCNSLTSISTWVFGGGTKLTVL
With “Delta RBD + E406Q (from UniProt P0DTC2) (domain or fragment)” the Kd was 8.9 nM. With “Delta RBD + Y453F (from UniProt P0DTC2) (domain or fragment)” the Kd was 9.8 nM. In the case of “Delta RBD + L455S (from UniProt P0DTC2) (domain or fragment)”, the Kd is reported as 9.1 nM. For “Delta RBD + G446S (from UniProt P0DTC2) (domain or fragment)”, the Kd was 734 nM.

Each substance was assayed against sotrovimab in the same assay as above.
Work on “BA.1 RBD + E340V (from UniProt P0DTC2) (domain or fragment)” yielded a Kd of 345 nM. Substance “BA.1 RBD + E340D (from UniProt P0DTC2) (domain or fragment)” has a Kd of 764 nM. With “BA.1 RBD + E340K (from UniProt P0DTC2) (domain or fragment)” the Kd was 3440 nM. Substance “BA.1 RBD + E340A (from UniProt P0DTC2) (domain or fragment)” has a Kd of 3420 nM. For “BA.1 RBD + P337S (from UniProt P0DTC2) (domain or fragment)”, the Kd was 332 nM. Work on “BA.1 RBD + P337R (from UniProt P0DTC2) (domain or fragment)” yielded a Kd of 753 nM.

The substances below were run against casirivimab (human) in the same assay as above.
Chain of casirivimab (human) (heavy, as listed by the source, chain 1 of 2): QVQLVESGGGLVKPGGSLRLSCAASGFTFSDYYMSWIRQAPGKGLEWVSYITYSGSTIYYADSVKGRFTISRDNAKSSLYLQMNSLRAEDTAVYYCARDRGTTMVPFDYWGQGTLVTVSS
Chain of casirivimab (human) (light, as listed by the source, chain 2 of 2): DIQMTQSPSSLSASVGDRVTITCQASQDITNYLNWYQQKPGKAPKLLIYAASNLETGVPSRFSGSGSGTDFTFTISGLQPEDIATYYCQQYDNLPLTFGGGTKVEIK
“Delta RBD + G446V + L455F (from UniProt P0DTC2) (domain or fragment)” showed a Kd of 69 nM. “Delta RBD + G446V (from UniProt P0DTC2) (domain or fragment)” was tested, and the Kd was 0.64 nM. With “Delta RBD + E406D (from UniProt P0DTC2) (domain or fragment)” the Kd was 7.1 nM. “Delta RBD + Y453F (from UniProt P0DTC2) (domain or fragment)” showed a Kd of 67 nM. “Delta RBD + G446S (from UniProt P0DTC2) (domain or fragment)” showed a Kd of 0.56 nM.
